The labels stand for the following.
T1: human EphA10 extracellular region-SEAP-His protein (human, UniProt Q5JZY3 34-565)
T1 construct: extracellular domain; also called hEphA10-SEAP-His
T1 sequence (looked up): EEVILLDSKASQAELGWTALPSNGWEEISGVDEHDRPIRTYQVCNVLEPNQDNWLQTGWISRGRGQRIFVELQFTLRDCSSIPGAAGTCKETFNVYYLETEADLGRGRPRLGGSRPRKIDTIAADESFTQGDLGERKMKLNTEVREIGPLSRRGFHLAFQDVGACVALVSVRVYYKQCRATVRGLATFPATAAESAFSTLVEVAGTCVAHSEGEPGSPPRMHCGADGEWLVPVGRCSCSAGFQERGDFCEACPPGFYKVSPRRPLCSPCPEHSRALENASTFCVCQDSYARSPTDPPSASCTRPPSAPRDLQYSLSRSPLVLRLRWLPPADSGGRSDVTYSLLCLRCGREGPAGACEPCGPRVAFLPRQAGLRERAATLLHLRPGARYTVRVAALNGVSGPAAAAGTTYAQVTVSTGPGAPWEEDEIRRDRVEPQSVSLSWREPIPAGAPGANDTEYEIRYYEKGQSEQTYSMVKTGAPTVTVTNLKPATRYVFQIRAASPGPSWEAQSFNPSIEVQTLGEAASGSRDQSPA

T2: human EphB6 extracellular region-SEAP-His protein (human, UniProt O15197 32-594)
T2 construct: extracellular domain; also called hEphB6-SEAP-His
T2 sequence (looked up): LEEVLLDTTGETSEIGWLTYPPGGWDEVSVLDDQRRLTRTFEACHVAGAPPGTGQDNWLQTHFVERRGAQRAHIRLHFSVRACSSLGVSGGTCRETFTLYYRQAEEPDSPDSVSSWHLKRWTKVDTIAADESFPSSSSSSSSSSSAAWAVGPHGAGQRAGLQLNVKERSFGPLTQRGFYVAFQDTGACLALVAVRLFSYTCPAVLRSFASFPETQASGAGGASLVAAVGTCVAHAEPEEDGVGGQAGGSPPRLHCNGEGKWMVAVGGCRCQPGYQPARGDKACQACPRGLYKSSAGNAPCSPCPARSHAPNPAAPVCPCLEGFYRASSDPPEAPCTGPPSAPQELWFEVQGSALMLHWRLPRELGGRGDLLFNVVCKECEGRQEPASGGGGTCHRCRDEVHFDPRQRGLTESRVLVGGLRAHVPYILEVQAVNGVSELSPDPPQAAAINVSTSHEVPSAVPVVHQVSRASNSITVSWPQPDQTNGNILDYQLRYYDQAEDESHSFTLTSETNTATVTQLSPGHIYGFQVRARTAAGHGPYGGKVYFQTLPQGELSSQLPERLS

B1: humanized antibody No. 160 (antibody, human IgG2)
heavy: QIQLVQSGSELKKPGASVKVSCKASGYTFTDYSMHWVRQAPGQGLKWMGWINTETGEPTYADDFKGRFVFSLDTSVSTAYLQISSLKAEDTAVYYCARIPLYYYGSRYWYFDVWGQGTTVTVSSASTKGPSVFPLAPSSRSTSESTAALGCLVKDYFPEPVTVSWNSGALTSGVHTFPAVLQSSGLYSLSSVVTVPSSNFGTQTYTCNVDHKPSNTKVDKTVERKSCVECPPCPAPPAAAPSVFLFPPKPKDTLMISRTPEVTCVVVDVSHEDPEVQFNWYVDGVEVHNAKTKPREEQFNSTFRVVSVLTVVHQDWLNGKEYKCKVSNKGLPAPIEKTISKTKGQPREPQVYTLPPSREEMTKNQVSLTCLVKGFYPSDIAVEWESNGQPENNYKTTPPMLDSDGSFFLYSKLTVDKSRWQQGNVFSCSVMHEALHNHYTQKSLSLSPG
light: DIQMTQSPSSLSASVGDRVTITCRASENIYRNLAWYQQKPGKAPQLLLYAATNLADGVPSRFSGSGSGTDYTLTISSLQPEDFATYYCQHFWGTPWTFGQGTKVEIKRTVAAPSVFIFPPSDEQLKSGTASVVCLLNNFYPREAKVQWKVDNALQSGNSQESVTEQDSKDSTYSLSSTLTLSKADYEKHKVYACEVTHQGLSSPVTKSFNRGEC
notes: human Ig kappa; also called L1-6/HK4
B2: humanized antibody No. 134 (antibody, human IgG2)
heavy: B1 heavy with I2V, D62Q, D63G, K65T
light: EIVMTQSPATLSVSPGERATLSCRASENIYRNLAWYQQKPGQSPRLLIYAATNLADGIPARFSGSGSGTEYTLTISSLQSEDFAVYYCQHFWGTPWTFGQGTKVEIKRTVAAPSVFIFPPSDEQLKSGTASVVCLLNNFYPREAKVQWKVDNALQSGNSQESVTEQDSKDSTYSLSSTLTLSKADYEKHKVYACEVTHQGLSSPVTKSFNRGEC
notes: human Ig kappa; also called L2-4/HA2
B3: humanized antibody No. 135 (antibody, human IgG2)
heavy: B1 heavy with I2V, K46E
light: B2 light
notes: human Ig kappa; also called L2-4/HK1
B4: humanized antibody No. 137 (antibody, human IgG2)
heavy: B1 heavy
light: B2 light
notes: human Ig kappa; also called L2-4/HK4
B5: humanized antibody No. 132 (antibody, human IgG2)
heavy: B1 heavy with D62Q, D63G, K65T
light: B2 light
notes: human Ig kappa; also called L2-4/HA4
B6: humanized antibody No. 133 (antibody, human IgG2)
heavy: B1 heavy with I2V, K46E, D62Q, D63G, K65T
light: B2 light
notes: human Ig kappa; also called L2-4/HA1
B7: humanized antibody No. 136 (antibody, human IgG2)
heavy: B1 heavy with I2V
light: B2 light
notes: human Ig kappa; also called L2-4/HK2
B8: humanized antibody No. 94 (antibody, human IgG1, kappa)
heavy: QVQLVQSGSELKKPGASVKVSCKASGYTFTDYSMHWVRQAPGQGLKWMGWINTETGEPTYAQGFTGRFVFSLDTSVSTAYLQISSLKAEDTAVYYCARIPLYYYGSRYWYFDVWGQGTTVTVSSASTKGPSVFPLAPSSKSTSGGTAALGCLVKDYFPEPVTVSWNSGALTSGVHTFPAVLQSSGLYSLSSVVTVPSSSLGTQTYICNVNHKPSNTKVDKRVEPKSCDKTHTCPPCPAPPAAAPSVFLFPPKPKDTLMISRTPEVTCVVVDVSHEDPEVQFNWYVDGVEVHNAKTKPREEQFNSTFRVVSVLTVVHQDWLNGKEYKCKVSNKGLPAPIEKTISKTKGQPREPQVYTLPPSREEMTKNQVSLTCLVKGFYPSDIAVEWESNGQPENNYKTTPPMLDSDGSFFLYSKLTVDKSRWQQGNVFSCSVMHEALHNHYTQKSLSLSPG
light: B2 light
notes: as for B2
B9: humanized antibody No. 93 (antibody, human IgG1, kappa)
heavy: B8 heavy with K46E
light: B2 light
notes: as for B6
B10: humanized antibody No. 95 (antibody, human IgG1, kappa)
heavy: B8 heavy with K46E, Q62D, G63D, T65K
light: B2 light
notes: as for B3
B11: humanized antibody No. 96 (antibody, human IgG1, kappa)
heavy: B8 heavy with Q62D, G63D, T65K
light: B2 light
notes: as for B7
B12: humanized antibody No. 71 (antibody, human IgG1, kappa)
heavy: B8 heavy with V2I
light: B2 light
notes: as for B5
B13: humanized antibody No. 73 (antibody, human IgG1, kappa)
heavy: B8 heavy with V2I, Q62D, G63D, T65K
light: B2 light
notes: as for B4
B14: antibody A (antibody, mouse IgG1, kappa, V domains shown)
VH: QIQLVQSGPELKKPGETVKISCKASGYTFTDYSMHWVKQAPGKGLKWMGWINTETGEPTYADDFKGRFAFSLETSASTAYLQINNLKNEDTATYFCARIPLYYYGSRYWYFDVWGAGTTVTVSS
VL: DIQMTQSPASLSVSVGETVTITCRASENIYRNLAWYQQKQGKSPQLLVYAATNLADGVPSRFSGSGSGTQYSLKINSLQSEDFGSYYCQHFWGTPWTFGGGTKLEIKR
notes: mouse IgG1 heavy chain, kappa light chain; purified from hybridoma supernatant; also called anti-EphA4 monoclonal antibody; antibody A-IgG

By IC50 is commonly meant the concentration at which inhibition is half-maximal.

Positions count from the first letter of the chain named.

Sequence of mouse EphA4 extracellular region-SEAP-His protein (mouse) (chain, as listed by the source limits assumed): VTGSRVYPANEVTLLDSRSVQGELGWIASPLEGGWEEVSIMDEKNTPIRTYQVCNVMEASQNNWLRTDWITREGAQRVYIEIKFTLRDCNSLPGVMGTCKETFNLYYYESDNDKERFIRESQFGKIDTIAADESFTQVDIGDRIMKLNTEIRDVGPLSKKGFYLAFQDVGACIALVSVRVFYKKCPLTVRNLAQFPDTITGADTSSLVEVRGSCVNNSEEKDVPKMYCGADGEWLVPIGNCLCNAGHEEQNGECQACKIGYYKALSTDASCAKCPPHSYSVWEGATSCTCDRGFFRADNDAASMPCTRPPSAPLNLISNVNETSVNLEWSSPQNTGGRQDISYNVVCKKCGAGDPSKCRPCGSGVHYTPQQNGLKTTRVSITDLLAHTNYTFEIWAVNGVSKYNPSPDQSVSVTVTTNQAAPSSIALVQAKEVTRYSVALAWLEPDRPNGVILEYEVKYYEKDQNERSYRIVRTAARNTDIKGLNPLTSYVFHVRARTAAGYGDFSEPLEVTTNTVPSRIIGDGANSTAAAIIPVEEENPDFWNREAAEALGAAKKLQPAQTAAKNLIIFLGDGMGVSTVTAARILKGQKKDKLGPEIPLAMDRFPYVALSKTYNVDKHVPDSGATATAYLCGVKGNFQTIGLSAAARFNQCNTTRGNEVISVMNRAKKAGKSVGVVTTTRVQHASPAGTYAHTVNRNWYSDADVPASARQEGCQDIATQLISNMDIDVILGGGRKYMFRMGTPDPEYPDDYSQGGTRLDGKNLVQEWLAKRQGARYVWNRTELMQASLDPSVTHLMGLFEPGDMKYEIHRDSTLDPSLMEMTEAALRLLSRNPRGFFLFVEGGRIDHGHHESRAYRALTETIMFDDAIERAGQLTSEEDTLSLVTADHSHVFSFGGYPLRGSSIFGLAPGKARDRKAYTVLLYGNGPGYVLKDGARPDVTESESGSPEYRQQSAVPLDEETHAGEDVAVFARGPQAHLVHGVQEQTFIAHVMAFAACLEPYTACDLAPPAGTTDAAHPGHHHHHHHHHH

For one experiment, the target named is T1, human EphA10 extracellular …. Kind of experiment: ELISA. (An ELISA detects its analyte on a solid surface through an enzyme-linked reagent.)
Turning to B1, the “A450 as % of hEphA4-SEAP-His” value turned out to be 5%.

Regarding B2, the “A450 as % of hEphA4-SEAP-His” value stood at 5%.

As to B3, the “A450 as % of hEphA4-SEAP-His” value turned out to be 5.1%.

For B4, the “A450 as % of hEphA4-SEAP-His” value is 5.6%.

As for B5, the “A450 as % of hEphA4-SEAP-His” value turned out to be 4.7%.

Consider B6, for which the “A450 as % of hEphA4-SEAP-His” value was found to be 4.7%.

As to B7, the “A450 as % of hEphA4-SEAP-His” value came out at 5.2%.

Take B8: the “A450 as % of hEphA4-SEAP-His” value is 6.4%.

For B9, the “A450 as % of hEphA4-SEAP-His” value amounted to 4.9%.

On to B10, for which the “A450 as % of hEphA4-SEAP-His” value was 4.5%.

Turning to B11, the “A450 as % of hEphA4-SEAP-His” value stood at 5.3%.

For B12, the “A450 as % of hEphA4-SEAP-His” value came to 5.3%.

B13: the “A450 as % of hEphA4-SEAP-His” value was 5.6%.

For another experiment, the target named is T2, human EphB6 extracellular …. Kind of experiment: ELISA.
For the molecule B1, the “A450 as % of hEphA4-SEAP-His” value was 6.2%.

In the case of B2, the “A450 as % of hEphA4-SEAP-His” value amounted to 5.2%.

As for B3, the “A450 as % of hEphA4-SEAP-His” value was found to be 5.3%.

Consider B4, for which the “A450 as % of hEphA4-SEAP-His” value was found to be 5.7%.

In the case of B5, the “A450 as % of hEphA4-SEAP-His” value was 4.7%.

For B6, the “A450 as % of hEphA4-SEAP-His” value came out at 4.8%.

Turning to B7, the “A450 as % of hEphA4-SEAP-His” value amounted to 5.5%.

In the case of B8, the “A450 as % of hEphA4-SEAP-His” value is 6.4%.

Regarding B9, the “A450 as % of hEphA4-SEAP-His” value turned out to be 4.9%.

As for B10, the “A450 as % of hEphA4-SEAP-His” value turned out to be 4.7%.

As for B11, the “A450 as % of hEphA4-SEAP-His” value was 5.5%.

B12: the “A450 as % of hEphA4-SEAP-His” value was 5.3%.

On to B13, for which the “A450 as % of hEphA4-SEAP-His” value is 5.6%.

The target of another experiment is mouse EphA4 extracellular region-SEAP-His protein (mouse). The experiment in a line: competition ELISA, competitor biotinylated mouse Ephrin B2-Fc; first value printed. The protocol:
Antibody A-Fab and antibody A-F(ab′)₂ obtained in Example 5 were evaluated for their inhibitory activity against the binding between EphA4 and its ligand according to the following steps. Each well of a 96-well plate (Nunc) was coated with an anti-alkaline phosphatase antibody (Thermo Fisher Scientific). After incubation overnight at 4° C., each well was blocked with 1% BlockAce (DS Pharma Biomedical) at room temperature for 1 hour. After washing with 0.05% Tween 20/PBS (Thermo Fisher Scientific) three times, the mouse EphA4 extracellular region-SEAP-His protein obtained by the method of Example 1 was added (final concentration: 10 nM) to each well and incubated at room temperature for 1 hour. After washing three times, a ligand and serially diluted antibody A (0, 0.003, 0.01, 0.03, 0.1, 0.3, 1, 3, 10, 30, 100, 300, 1000, and 3000 nM), antibody A-Fab (0, 0.003, 0.01, 0.03, 0.1, 0.3, 1, 3, 10, 30, 100, 300, 1000, and 3000 nM), antibody A-F(ab′)₂ (0, 0.003, 0.01, 0.03, 0.1, 0.3, 1, 3, 10, 30, 100, 300, 1000, and 3000 nM), or the EphA4 inhibitor KYL peptide ([…], 0, 0.0003, 0.001, 0.003, 0.01, 0.03, 0.1, 0.3, 1, 3, 10, 30, 100, 300, 1000, and 3000 μM, its synthesis was outsourced to Toray Research Center) were added to each well. […] The absorbance at 450 nm was read using a microplate reader (Molecular Devices or PerkinElmer). […]
In turn, B14 returned an IC50 of 2.6 nM.
